To fix the notation:
B1: anti-CD300LB antibody CD-02 (antibody, V domains shown)
VH: QVQLQQPGAELVRPGSSVKLSCQASGYTFTNYWMHWVRQRPIQGLEWIGNIDPSDSETHYNQKFKDRATLTVDKSSSTAYMQLSSLTSEDSAVYYCARSGVYDDEGGDYWGQGTTLTVSS
VL: ENVLTQSPAIMSASPGEKVTMTCSASSSVSYIHWYQQKSSTSPKLWIYDTSKLASGVPGRFSGSGSGNSYSLTISSMETEDVATYYCFQGSGYPLTFGAGTKLELK
B2: anti-CD300LB antibody CD-01 (antibody, V domains shown)
VH: RVQLQQSGAELVRPGASVTLSCKASGFTFTDFEMHWVKKTPVHGLEWIGAIDPESGNTAYNQKFRGKATLTADKSSSTAYMELRYLTSEDSAVYYCTPLISGADYWGQGTTLTVSS
VL: DVVMTQSPLSLPVSLGDQASISCRSSQSLVHSDGNTYLYWYLQKPGQSPKLLIYKVSNRFSGVPDRFSGSGSGTDFTFKISRVGAEDLGVYFCSQSTHVPWTFGGGTKLEII
B3: anti-CD300LB antibody CD-03 (antibody, V domains shown)
VH: EVQLQQSGPELVKPGASVKISCKASGYTFTDYYINWVRQSHGKSLECIGDINPNNGGTNYNQKFKGKATLTVDRSSNTAYMEFRSLTFDDSALYYCAAEGAYWGQGTLVTVSA
VL: not shown
B4: anti-CD300LB antibody CD-07 (antibody, V domains shown)
VH: QVQLVQSGAEVKKPGASVKVSCKASGYTFTNYRMHWVRQAPGQGLEWMGWINPNSGGTIYAQKFQGRVTMTRDTSTSTVYMELSSLRSEDTAVYYCARDLDYWGQGTLVTVSS
VL: DIQMTQSPSSLSASVGDRVTITCQASQDISNYLNWYQQKPGKAPKLLIYGASSLQSGVPSRFSGSGSGTDFTLTISSLQPEDFATYYCQQSYSTPWTFGPGTKVEIK
B5: anti-CD300LB antibody CD-05 (antibody, V domains shown)
VH: QVQLVQSGAEVKKPGASVKVSCKASGYTFSRYYINWVRQAPGQGLEWMGWINPNSGGTNYAQKFQGRVTMTRDTSTSTVYMELSSLRSEDTAVYYCTTDQLRFGKTGPYYGMDVWGQGTTVTVSS
VL: B4 VL with Q24R, D28N, S30G, N31T, G50A, T94D, P95T, W96L, P100G
B6: anti-CD300LB antibody CD-06 (antibody, V domains shown)
VH: QVQLVQSGAEVKKPGASVKVSCKASGYTFTTYAVHWVRQAPGQGLEWMGIVNPNSGGTNYAQKFQGRVTMTRDTSTSTVYMELSSLRSEDTAVYYCARDIVPMNNFYNYYYGMDVWGQGTTVTVSS
VL: B4 VL with Q24R, D28S, N31S, G50A, A51T, S53T, S93R, T94I, W96Y, P100Q
B7: anti-CD300LB antibody CD-11 (antibody, V domains shown)
VH: QIQLVQSGPEVKKPGETVKISCKASGYTLTDYSMHWVMQTPGTGLKWMAWMNTETGEPTYADDFKGRFAFSLETSAGTAYLQIDNLKNEDTATYFCATYGKSYGMKYWGQGTSVTVSS
VL: DIVLTQSPPSLAVSLGQRATISCRATKSVSPYLHWYQQTPGQPPKLLIYLASNLDSGVPARFSGSGSGTDFTLNIHPVEEEDAATYYCQHNKELPPTFGGGTRLEIK
B8: anti-CD300LB antibody CD-12 (antibody, V domains shown)
VH: QIQLVQSGPELKKPGETVKISCKASGYTFTDYSMHWVRQAPGKGLKWMAWINTETGEATHADDFKGRFDFSLDTSASTAYLQIKNLKNEDTGIYFCVCYGSSYGMDYWGQGTSVTVSS
VL: DIVLTQSPASLPVSLGQRATISCRASKSVRTSGASYMHWYQQKPGQPPKLLIYLASNLKSGVPTRFSGSGSGTDFTLNIHPVEEEDAATYYCQHNREVPPTFGGGTKLEIK
B9: anti-CD300LB antibody CD-15 (antibody, V domains shown)
VH: QIQLVQSGPELKKPGETVKISCQVSGYTFTDYSMHWLKQAPGKGLKWMAWINTETGESTYTDEFKGRFVFSLETSVRTAYLKINNLKNEDTATYFCGTYGSSYGMAYWGQGTSVTVSS
VL: B8 VL with R30S, A34S, M37L, N57K, K59E, T64A, S67R
B10: anti-CD300LB antibody CD-13 (antibody, V domains shown)
VH: QIQLVQSGPELKKPGETVKISCKASGYTFTDYSMHWVKQAPGKGFKWMAWINTETGAPTHADDFRGRFAFSLETSASTAFLQISNLKTEDTATYFCVTFGKSYGMNYWGQGTSVTVSS
VL: B8 VL with P12S, R30G, T31S, A34S, M37L, K59E, T64A, D74E, R96A
B11: anti-CD300LB antibody CD-16 (antibody, V domains shown)
VH: QIQLVQSGPELKKPGETVKISCKASGYTFTDYSMHWVKQAPGKGLKWMAWINTETGEPTYADDFRGRFAFSLETSGRTAYLEINNLRNEDTATYFCVTYGSSYGMAYWGQGTSVTVSS
VL: B8 VL with P12A, R30S, T31R, A34Y, M37L, N57K, K59E, T64A, E84A, V98I
B12: anti-CD300LB antibody CD-14 (antibody, V domains shown)
VH: QIQLVQSGPELKKPGETVKISCKASGYTFTDYSLHWVKQTPEKNLKWMAWINTETGAPTYADDFKGRFAFSLETSSNTAYLLINNLKNEDTATYFCALTMVNYWGQGTTLTVSS
VL: DIVMTQSQKFMSTSVGDRVSVTCKASQNVGIRVAWHQQKPGQSPKTLIYSTSYRYSGVPDRFTGSGSGTEFILTISNVQSEDLAEYFCQQYNSYPYTFGGGTKLEIK

The values that follow come from patent publication US20240254227A1 (Alector, published 2024).

Numbering of substitutions follows the chain as printed.

In one test the target is T1, huCD300F constitutively expressed on 293 Freestyle (Freestyle HEK) cells (human, UniProt Q8TDQ1 20-290).
T1 construct: also called huCD300LF; Human CD300F
T1 sequence: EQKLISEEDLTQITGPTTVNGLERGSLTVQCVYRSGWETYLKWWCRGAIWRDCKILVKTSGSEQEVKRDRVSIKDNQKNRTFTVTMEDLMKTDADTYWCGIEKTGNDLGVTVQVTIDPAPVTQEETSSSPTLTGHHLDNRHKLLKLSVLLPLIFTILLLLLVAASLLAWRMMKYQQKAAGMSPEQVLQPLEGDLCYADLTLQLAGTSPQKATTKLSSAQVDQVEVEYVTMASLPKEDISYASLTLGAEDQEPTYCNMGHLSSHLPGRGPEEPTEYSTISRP
The experiment in a line: flow cytometry, stable Freestyle HEK cells. The procedure: Other members of the human CD300 family share sequence homology with human CD300LB. Thus, counter screens against binding of the anti-CD300LB antibodies to huCD300A, huCD300C, huCD300LD, huCD300E, huCD300LF, and huCD300G by stable overexpression in Freestyle HEK cells (generation of which is described above) were performed as follows. Cells were counted and labeled with 200 nM CFSE, 500 nM VioBlue, or a combination of the two to discriminate between CD300LB, Parental cells, and the other CD300 family members. Cells were washed thoroughly with PBS containing 2% fetal bovine serum then resuspended at a total of 240,000 cells per well. Hybridoma supernatants (100 L) or purified antibodies at various concentrations were added and incubated for one hour before the cells were washed twice again and stained with an APC-labeled anti-human or anti-mouse secondary antibody. Cells were then analyzed using a BD FACSCanto II. Anti-CD300LB antibodies were analyzed for specific binding to human CD300LB by FlowJo software by gating on live cells, then the APC geometric mean fluorescence intensity (gMFI) calculated for each labeled population. The results are shown in […]
Freestyle HEK cells were transfected with huCD300A, huCD300C, huCD300D, huCD300E, and huCD300G separately. Then, five stable cell lines from these transfections were pooled; the combined cells are herein known as CD300A/C/D/E/G. Freestyle HEK cells were also transfected with huCD300LB and huCD300F. All transfected cells were then tested for binding of anti-CD300LB antibodies of the present disclosure.
On to B1, for which the gMFI is -93 gMFI.
B2: the gMFI is -26 gMFI.
Turning to B3, the binding result is on record as “no binding” and the gMFI was 2090 gMFI.
The like results for B4 were, in that order, “no binding” and 112 gMFI.
For B5, in that order: “no binding” and 2730 gMFI.
Consider B6, for which the binding result was “no binding” and the gMFI is 886 gMFI.

The next test addresses T2, human CD300LB transiently expressed on HEK293 cells (human, UniProt A8K4G0 18-201).
T2 construct: CD300LB expression constructs'; also called huCD300LB HEK293
T2 sequence: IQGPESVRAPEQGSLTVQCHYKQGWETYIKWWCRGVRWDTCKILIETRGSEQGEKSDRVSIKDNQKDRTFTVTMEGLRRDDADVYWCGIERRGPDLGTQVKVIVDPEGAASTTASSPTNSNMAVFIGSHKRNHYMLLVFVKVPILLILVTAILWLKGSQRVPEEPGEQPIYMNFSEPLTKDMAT
The experiment in a line: flow cytometry, transfected HEK293, 10 ug/mL, isotype subtracted. As to the method:
In addition, supernatants or purified antibodies were tested for species crossreactivity by comparing the binding of human, mouse, and cynomolgous monkey CD300LB expressing cell lines. HEK293 were transfected with […] of human, mouse, and cyno CD300LB expression constructs using the Mirus system in 10 cm tissue culture dishes. Cells were then incubated for 24 hours in complete medium. Cells were harvested by incubation in TrypLE Express, then washed with PBS and labeled with 200 nM CFSE, 500 nM VioBlue, or a combination of the two to discriminate between human, mouse, and cyno CD300LB expressing cells. Cells were washed thoroughly with PBS containing 2% fetal bovine serum then resuspended at a total of 240,000 cells per well. Purified antibodies at 10 μg/mL were added and incubated for one hour before the cells were washed again and stained with an APC-labeled anti-human or anti-mouse secondary. Cells were then analyzed using a BD FACSCanto II. Antibodies were analyzed for specific binding to human, mouse, or cyno CD300LB by FlowJo software by gating on live cells, then the APC gMFI calculated for each labeled population minus the gMFI of the isotype control.
Regarding B1, the gMFI came to 578 gMFI.
On the same count and under the same terms, under B2 stands 166 gMFI; under B3, 38.7 gMFI; under B4, 686 gMFI.
On to B5, for which the gMFI came out at 933 gMFI.
Same read-out and setting: under B6 stands 314 gMFI.

The next test deals with T3, murine CD300LB stably expressed on Jurkat cells (mouse, UniProt Q3U497 18-209).
T3 construct: also called muCD300LB; mouse CD300LB
T3 sequence: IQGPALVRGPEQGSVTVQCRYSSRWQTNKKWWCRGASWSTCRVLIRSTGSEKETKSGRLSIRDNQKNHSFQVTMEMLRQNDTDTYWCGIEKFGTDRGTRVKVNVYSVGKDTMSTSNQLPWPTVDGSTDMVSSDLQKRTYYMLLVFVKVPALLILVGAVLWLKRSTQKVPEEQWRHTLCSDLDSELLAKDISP
Nature of the test: flow cytometry, stable Jurkat cells, 10 ug/mL, isotype subtracted. As to the method:
Purified anti-CD300LB antibodies of the present disclosure were analyzed for cross-reactivity to other murine CD300 family members stably expressed in Jurkat cells (generation of which is described above). Cells were counted and labeled with 200 nM CFSE, 500 nM VioBlue, or a combination of the two to discriminate between muCD300LB, Parental cells, CD300F, and the other CD300 family members. Cells were washed thoroughly with PBS containing 2% fetal bovine serum then resuspended at a total of 240,000 cells per well. Purified antibodies at 10 μg/mL were added and incubated for one hour before the cells were washed twice again and stained with an APC-labeled anti-mouse secondary. Cells were then analyzed using a BD FACSCanto II. Antibodies were analyzed for specific binding to muCD300LB by FlowJo software by gating on live cells, then the APC gMFI calculated for each labeled population by subtracting the gMFI of the isotype control. The gMFI results of the analysis are presented below in Table 4.
(In general: In flow cytometry, cells or beads pass a laser one at a time.)
As for B7, the gMFI stood at 4660 gMFI.
Same read-out and setting: next, B8: 4210 gMFI; B9: 4140 gMFI; B10: 7600 gMFI.
As for B11, the gMFI was determined as 4570 gMFI.
The same measure, in the same setting: next, B12: 9550 gMFI.

The target of another test is T4, recombinant human CD300LB overexpressed on Jurkat cells (human, UniProt A8K4G0 18-201).
T4 construct: also called huCD300LB; huCD300LB-expressing Jurkat cells
T4 sequence: T2 sequence
The experiment in a line: flow cytometry, stable Jurkat cells, supernatant or 10 ug/mL, isotype subtracted. In outline: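 Binding was read as live-gated APC gMFI minus the matching isotype control, after an APC anti-human or anti-mouse secondary. Antibodies, either as hybridoma supernatants or purified at 10 μg/mL, were incubated 1 hour with a pooled mix of mouse-CD300LB, human-CD300LB and parental Jurkat cells, distinguished by CFSE/VioBlue labeling.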
Turning to B1, the gMFI was determined as 1130 gMFI.
Same read-out and setting: under B2 stands 309 gMFI; under B7, 50 gMFI; under B10, 324 gMFI.
On the same count and under the same terms, next, B12: 59 gMFI; B5: 1810 gMFI.
The same measure, in the same setting: next, B6: 3180 gMFI.
